*1 amine or outer side, *2 acyl side, *3 side chain or, on linkers, in order; H or OH if unused. Where no end group is shown, it is not given here. [ ]: non-standard residue; d: D form. Met(35S) = [35S]-methionine label, C[35S]CC[C@H](N[*:1])C(=O)[*:2]; 35S = [35S]-methionine radiolabel; Pra = C#CC[C@H](N)C(=O)O
T1: hPD-L2* (recombinant glycosylated human PD-L2 ectodomain, L20-T220, expressed in Expi293F cells) (human, UniProt Q9BQ51 20-220, glycosylated; Avi tag biotinylated in vitro with BirA)
T1 construct: range 20-220
T1 sequence: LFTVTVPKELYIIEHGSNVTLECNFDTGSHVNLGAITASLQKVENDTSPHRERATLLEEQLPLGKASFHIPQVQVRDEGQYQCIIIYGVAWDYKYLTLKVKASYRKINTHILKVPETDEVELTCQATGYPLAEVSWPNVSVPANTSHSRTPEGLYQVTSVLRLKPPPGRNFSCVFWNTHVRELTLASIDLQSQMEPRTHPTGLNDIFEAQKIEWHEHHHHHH

B1: [35S]-labeled SPAM peptide (in vitro translated) (peptide)
peptide: M(35S)PIFLDHILNKFWILHYAGSGSSGHHHHHHSS
notes: Translated in reticulocyte lysate; also called [35S]-SPAM; radiolabeled SPAM peptide
B2: mPD-1 (extracellular domain of mouse PD-1, L15 to S157, C83S, HA tag and His tag, expressed in E. coli) (receptor)
chain: MALEVPNGPWRSLTFYPAWLTVSEGANATFTCSLSNWSEDLMLNWNRLSPSNQTEKQAAFSNGLSQPVQDARFQIIQLPNRHDFHMNILDTRRNDSGIYLCGAISLHPKAKIEESPGAELVVTERILETSTRYPSGGYPYDVPDYALEHHHHHH
notes: also called HA-tagged mPD-1; murine variant of PD-1
B3: SPAM K11A variant (peptide)
peptide: M(35S)PIFLDHILNAFWILHYAGSGSSGHHHHHHSS
notes: in vitro translated alanine-scan variant
B4: SPAM D6A variant (peptide)
peptide: [Met(35S)]PIFLAHILNKFWILHYAGSGSSGHHHHHHSS
notes: as for B3
B5: SPAM L15A variant (peptide)
peptide: M(35S)PIFLDHILNKFWIAHYAGSGSSGHHHHHHSS
notes: as for B3
B6: SPAM F12A variant (peptide)
peptide: [Met(35S)]PIFLDHILNKAWILHYAGSGSSGHHHHHHSS
notes: as for B3
B7: SPAM I14A variant (peptide)
peptide: [Met(35S)]PIFLDHILNKFWALHYAGSGSSGHHHHHHSS
notes: as for B3
B8: SPAM H7A variant (peptide)
peptide: [Met(35S)]PIFLDAILNKFWILHYAGSGSSGHHHHHHSS
notes: as for B3
B9: SPAM W13A variant (peptide)
peptide: M(35S)PIFLDHILNKFAILHYAGSGSSGHHHHHHSS
notes: as for B3
B10: SPAM L5A variant (peptide)
peptide: M(35S)PIFADHILNKFWILHYAGSGSSGHHHHHHSS
notes: as for B3
B11: SPAM F4A variant (peptide)
peptide: [Met(35S)]PIALDHILNKFWILHYAGSGSSGHHHHHHSS
notes: as for B3
B12: SPAM H16A variant (peptide)
peptide: [Met(35S)]PIFLDHILNKFWILAYAGSGSSGHHHHHHSS
notes: as for B3
B13: SPAM I8A variant (peptide)
peptide: M(35S)PIFLDHALNKFWILHYAGSGSSGHHHHHHSS
notes: as for B3
B14: SPAM L9A variant (peptide)
peptide: M(35S)PIFLDHIANKFWILHYAGSGSSGHHHHHHSS
notes: as for B3
B15: SPAM P2A variant (peptide)
peptide: M(35S)AIFLDHILNKFWILHYAGSGSSGHHHHHHSS
notes: as for B3
B16: SPAM N10A variant (peptide)
peptide: M(35S)PIFLDHILAKFWILHYAGSGSSGHHHHHHSS
notes: as for B3
B17: SPAM I3A variant (peptide)
peptide: M(35S)PAFLDHILNKFWILHYAGSGSSGHHHHHHSS
notes: as for B3

These binders were tested against T2, biotinylated hPD-L1 (extracellular domain of human PD-L1, Ala18 to Thr239, expressed in E. coli, … (human, biotin on the epsilon-amino group of the Avi tag lysine (BirA))) (assay: radioactive pull-down of [35S]-labeled variant on immobilized hPD-L1, normalized to SPAM).
T2 construct: also called recombinant hPD-L1; non-glycosylated hPD-L1
Method: (§1) The conservation level for each doped residue in the X₁₇ library was obtained from next-generation sequencing data. […] FIG. 3 discloses SEQ ID NO: 180. […] Each measurement was carried out in triplicate and error bars show the standard deviation of the mean. (Students t-test; p value <0.05 (*), <0.01 (**), <0.005 (***)<0.001 (****))
[³⁵S]-labeled peptides were translated as described above by including 2 μCi labeled methionine (Perkin Elmer) per 10 pmol of template in the translation reaction. Each peptide was tested with a […] (for X₉-library derived peptides) (SEQ ID NO: 11) or a […] (for X17-library derived peptides) (SEQ ID NO: 12) C-terminal sequence. […] The supernatant was removed and was counted. The beads were subsequently washed three times with 1 mL of blocking buffer and the washes were also counted. Finally, the beads were resuspended in 1 mL of blocking buffer and were counted separately. The ratio of the counts remaining on the beads to the total counts added to the binding reaction (the sum of the counts for supernatant, washes, and beads) was calculated to determine the percent bound.

Row | binding result | Binder
1 | no binding | [Met(35S)]PIFLDHILNKFWILHYGGSGSSGHHHHHHSS [SPAM A18 variant (glycine substituted for alanine at position 18)]

The binders below were run against mPD-L1 (extracellular domain of mouse PD-L1, A18 to H239, expressed in E. coli, biotinylated) (mouse, biotin on the epsilon-amino group of the Avi tag lysine) (assay: radioactive pull-down of [35S]-labeled SPAM on immobilized target, normalized to hPD-L1).
Chain of mPD-L1 (extracellular domain of mouse PD-L1, A18 to H239, expressed in E. coli, biotinylated) (mouse, biotin on the epsilon-amino group of the Avi tag lysine) (chain, as listed by the source limits assumed): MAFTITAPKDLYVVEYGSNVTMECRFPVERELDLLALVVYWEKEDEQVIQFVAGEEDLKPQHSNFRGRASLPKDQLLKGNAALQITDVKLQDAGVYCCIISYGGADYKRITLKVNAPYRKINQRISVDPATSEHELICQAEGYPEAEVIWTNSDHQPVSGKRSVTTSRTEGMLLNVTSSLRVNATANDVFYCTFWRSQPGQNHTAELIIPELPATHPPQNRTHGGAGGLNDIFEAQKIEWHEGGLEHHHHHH

Row | binding result | Binder
2 | no binding | B1

What follows are binders tested against T1, hPD-L2* (recombinant glycosylated human …) (assay: radioactive pull-down of [35S]-labeled SPAM on immobilized target, normalized to hPD-L1 [cont.) D]).

Row | binding result | Binder
3 | no binding | B1

What follows are binders tested against T2, biotinylated hPD-L1 (extracellular …) (assay: SPR (Biacore T-100), biotinylated hPD-L1 on SA chip, mPD-1 0.15-29 uM as analyte, 25 C, one-site saturation fit).
Method: SPR analysis was performed on a Biacore T-100 at the USC Nanobiophysics core. […] The response values were fit to a one-site saturation binding model in GraphPad Prism to obtain an equilibrium binding constant.

Row | Kd [nM] | Binder
4 | 3200 | B2

Each binder was assayed against T2, biotinylated hPD-L1 (extracellular …) (assay: radioactive pull-down of [35S]-labeled alanine variant on immobilized hPD-L1, normalized to SPAM).
Method: as §1
[³⁵S]-labeled peptides were translated as described above by including 2 μCi labeled methionine (Perkin Elmer) per 10 pmol of template in the translation reaction. Each peptide was tested with a […] (for X₉-library derived peptides) (SEQ ID NO: 11) or a […] (for X17-library derived peptides) (SEQ ID NO: 12) C-terminal sequence. Binding assays using [35S]-labeled peptide-RNA fusions were similarly performed on hPD-L1 immobilized beads using 75 pmol hPD-L1 immobilized on streptavidin or neutravidin agarose beads (Thermo Fisher scientific) in blocking buffer (20 mM HEPES-KOH pH 7.5, 150 mM NaCl, 0.2% (v/v) Tween-20, 1 mg/mL BSA, 50 μg/mL tRNA and 0.02 mM biotin) at 4° C. for 1 h. The supernatant was removed and was counted.

Row | binding result | Binder
5 | no binding | B3
6 | no binding | B4
7 | no binding | B5
8 | no binding | B6
9 | no binding | B7
10 | no binding | B8
11 | no binding | B9
12 | binds | B10
13 | binds | B11
14 | no binding | B12
15 | binds | B13
16 | binds | B14
17 | binds | B15
18 | no binding | B16
19 | binds | B17

These binders were tested against T3, mPD-L1 expressed on CHO cells (CHO-mPD-L1) (mouse, UniProt Q9EP73 19-290) (assay: flow cytometry competition on CHO-mPD-L1 cells: pre-incubation with the peptide, then Fluorescein-16373; % of median fluorescence intensity [cont.) D]).
T3 construct: whole, on cells; The construct in the CHO cells is not described
Source text: Bars represent means±SD, n=3. One-way ANOVA with Dunnett's multiple comparison's test p value <0.05 (*), <0.01 (**), <0.001 (***).
Cells were then washed three times with cold serum free DMEM. Cells were subsequently processed by flow cytometry with a BD FACSCalibur system using the FL1 channel. FlowJo v10.1 was used to gate to the major population and median FL1 fluorescence reported.

T3 sequence (Q9EP73 19-290): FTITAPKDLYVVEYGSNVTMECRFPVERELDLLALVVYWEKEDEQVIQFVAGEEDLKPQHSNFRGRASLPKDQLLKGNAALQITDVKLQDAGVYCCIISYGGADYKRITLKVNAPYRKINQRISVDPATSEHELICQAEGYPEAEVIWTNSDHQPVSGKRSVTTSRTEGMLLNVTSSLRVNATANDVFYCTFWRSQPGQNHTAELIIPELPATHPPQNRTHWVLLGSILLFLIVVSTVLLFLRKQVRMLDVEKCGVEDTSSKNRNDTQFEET

Row | binding result | Binder
20 | no binding (tested: 10 µM) | MPIFLDHILNKFWILHYASG[Pra]-NH2 [SPAM peptide (synthetic, MPIFLDHILNKFWILHYASG-Pra)]

Each binder was assayed against T2, biotinylated hPD-L1 (extracellular …) (assay: ELISA/IP: 100 nM biotinylated hPD-L1 on streptavidin magnetic beads, SPAM 0.1, 1, 10 uM; competitor 100 nM HA-tagged mPD-1 detected with anti-HA-HRP).
Method: For ELISA/IP assays, 20 μL of MyOne™ Streptavidin T1 magnetic beads Dynabeads™ (Thermo Fisher Scientific) were loaded with 100 nM biotinylated hPD-L1 in assay buffer (20 mM HEPES-KOH pH 7.5, 150 mM NaCl, 0.2% (v/v) Tween-20, 1 mg/mL BSA and 50 μg/mL tRNA) at 4° C. […] The samples were then washed and incubated with a 1:5,000 dilution of HRP conjugated anti-HA antibody (Pierce HA Antibody, Rockford. Ill., USA) for 1 h at 4° C. The beads were washed again and developed with TMB Substrate Kit (Thermo Scientific) for 30 minutes and the reactions stopped by adding 100 μL of […] sulfuric acid.

Row | IC50 [nM] | Binder
21 | ~1100 | MPIFLDHILNKFWILHYASG[Pra]-NH2 [SPAM peptide (synthetic, MPIFLDHILNKFWILHYASG-Pra)]
